Assay results: publication PMC9482650, “Quantitative fragmentomics allow affinity mapping of interactomes” (Nature Communications, 2022)
Each block holds one binder with its values, some of them ahead of it.

Assays:
Assay in all cases: holdup assay
Set-up in all cases: key: below the threshold = too weak to quantify, mostly under pKd 3.1 to 4
Conditions in all cases: plain residues with an end cap or a label only (N-terminal biotin on a linker: ado-ado)
GRASP, Q7Z6J2 = target: GRASP, Q7Z6J2
LDB3, O75112 = target: LDB3, O75112
Chain of LDB3, O75112 (O75112 1-94): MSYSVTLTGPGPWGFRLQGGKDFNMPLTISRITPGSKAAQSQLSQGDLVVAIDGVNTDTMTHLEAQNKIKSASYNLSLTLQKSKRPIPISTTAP

LNX1_1, Q8TBB1 = target: LNX1_1, Q8TBB1
Chain of LNX1_1, Q8TBB1 (Q8TBB1 261-371): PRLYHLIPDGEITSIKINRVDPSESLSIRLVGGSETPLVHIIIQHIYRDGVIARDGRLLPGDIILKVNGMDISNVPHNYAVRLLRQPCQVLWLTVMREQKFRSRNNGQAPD

Inadl_10, Q8NI35 = target: Inadl_10, Q8NI35
Chain of Inadl_10, Q8NI35 (Q8NI35 1673-1763): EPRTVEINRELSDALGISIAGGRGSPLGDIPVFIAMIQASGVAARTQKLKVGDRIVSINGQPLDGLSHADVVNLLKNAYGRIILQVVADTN

MPDZ_12, O75970 = target: T1, MPDZ_12, O75970
T1 sequence (O75970 1857-1958, limits assumed, looked up): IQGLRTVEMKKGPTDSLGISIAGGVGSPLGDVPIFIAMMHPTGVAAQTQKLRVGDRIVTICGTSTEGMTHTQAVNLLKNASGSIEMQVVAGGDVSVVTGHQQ

TJP1_2, Q07157 = target: TJP1_2, Q07157
Chain of TJP1_2, Q07157 (Q07157 181-274): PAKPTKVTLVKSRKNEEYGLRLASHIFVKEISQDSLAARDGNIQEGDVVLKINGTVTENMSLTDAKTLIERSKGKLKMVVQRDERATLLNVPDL

RHPN1, Q8TCX5 = target: T2, RHPN1, Q8TCX5
T2 sequence (Q8TCX5 508-602, limits assumed, looked up): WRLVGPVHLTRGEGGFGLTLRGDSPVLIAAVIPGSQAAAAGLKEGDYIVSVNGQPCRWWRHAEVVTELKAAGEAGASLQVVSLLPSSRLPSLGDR

NHERF4_1, Q86UT5-2 = target: NHERF4_1, Q86UT5-2
Chain of NHERF4_1, Q86UT5-2 (Q86UT5 other isoform, or with tags, fused parts or gaps): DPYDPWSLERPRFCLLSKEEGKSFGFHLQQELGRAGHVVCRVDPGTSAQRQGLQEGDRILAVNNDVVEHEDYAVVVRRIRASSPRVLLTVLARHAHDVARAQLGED

GRIP2_5, Q9C0E4 = target: GRIP2_5, Q9C0E4
Chain of GRIP2_5, Q9C0E4 (Q9C0E4 544-642): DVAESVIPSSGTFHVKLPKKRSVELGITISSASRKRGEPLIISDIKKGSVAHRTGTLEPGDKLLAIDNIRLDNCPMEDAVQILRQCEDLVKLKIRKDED

NHERF4_4, Q86UT5 = target: NHERF4_4, Q86UT5
Chain of NHERF4_4, Q86UT5 (Q86UT5 464-550): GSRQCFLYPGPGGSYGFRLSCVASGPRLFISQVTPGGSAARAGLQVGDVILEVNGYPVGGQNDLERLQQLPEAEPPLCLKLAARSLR

DVL3, Q92997 = target: T3, DVL3, Q92997
T3 sequence (Q92997 244-331, limits assumed, looked up): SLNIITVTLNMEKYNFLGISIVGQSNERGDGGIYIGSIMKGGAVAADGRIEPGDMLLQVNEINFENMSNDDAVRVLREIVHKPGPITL

LNX2_3, Q8N448 = target: T4, LNX2_3, Q8N448
T4 sequence (Q8N448 463-564, limits assumed, looked up): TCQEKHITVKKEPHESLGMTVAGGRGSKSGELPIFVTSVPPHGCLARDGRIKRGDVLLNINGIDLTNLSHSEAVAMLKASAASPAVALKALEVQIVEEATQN

GIPC2, Q8TF65 = target: GIPC2, Q8TF65
Chain of GIPC2, Q8TF65 (Q8TF65 112-203): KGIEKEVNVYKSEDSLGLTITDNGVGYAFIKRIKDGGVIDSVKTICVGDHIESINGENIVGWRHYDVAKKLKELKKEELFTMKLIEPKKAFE

ARHGEF11, O15085 = target: T5, ARHGEF11, O15085
T5 sequence (O15085 42-136, limits assumed, looked up): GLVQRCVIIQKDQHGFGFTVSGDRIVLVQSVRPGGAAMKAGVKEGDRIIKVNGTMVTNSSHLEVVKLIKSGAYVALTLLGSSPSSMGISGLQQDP

GRIP1_7, Q9Y3R0 = target: T6, GRIP1_7, Q9Y3R0
T6 sequence (Q9Y3R0 999-1096, limits assumed, looked up): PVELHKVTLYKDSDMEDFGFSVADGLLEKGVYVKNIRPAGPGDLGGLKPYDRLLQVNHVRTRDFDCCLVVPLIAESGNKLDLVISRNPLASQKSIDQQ

LNX1_3, Q8TBB1 = target: LNX1_3, Q8TBB1
Chain of LNX1_3, Q8TBB1 (Q8TBB1 500-596): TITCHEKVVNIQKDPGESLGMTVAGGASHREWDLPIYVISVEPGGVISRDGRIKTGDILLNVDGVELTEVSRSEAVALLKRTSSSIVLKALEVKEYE

CARD11, Q9BXL7 = target: T7, CARD11, Q9BXL7
T7 sequence (Q9BXL7 662-765, limits assumed, looked up): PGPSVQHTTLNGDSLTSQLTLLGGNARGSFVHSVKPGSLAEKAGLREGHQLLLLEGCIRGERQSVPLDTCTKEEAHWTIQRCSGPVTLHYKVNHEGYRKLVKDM

MAGI1_2, Q96QZ7 = target: MAGI1_2, Q96QZ7
Chain of MAGI1_2, Q96QZ7 (Q96QZ7 456-580): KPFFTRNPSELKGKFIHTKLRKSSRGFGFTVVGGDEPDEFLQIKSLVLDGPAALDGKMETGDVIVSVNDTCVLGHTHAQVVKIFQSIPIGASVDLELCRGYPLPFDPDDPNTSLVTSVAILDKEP

TJP1_3, Q07157 = target: TJP1_3, Q07157
Chain of TJP1_3, Q07157 (Q07157 416-512): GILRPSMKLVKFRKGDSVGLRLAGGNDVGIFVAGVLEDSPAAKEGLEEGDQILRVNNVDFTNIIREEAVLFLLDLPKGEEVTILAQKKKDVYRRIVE

NHERF4_2, Q86UT5 = target: NHERF4_2, Q86UT5
Chain of NHERF4_2, Q86UT5 (Q86UT5 220-308): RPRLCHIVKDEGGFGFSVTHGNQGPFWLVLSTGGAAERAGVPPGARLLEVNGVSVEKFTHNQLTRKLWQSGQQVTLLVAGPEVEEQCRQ

PDZRN4_1, Q6ZMN7 = target: PDZRN4_1, Q6ZMN7
Chain of PDZRN4_1, Q6ZMN7 (Q6ZMN7 213-318): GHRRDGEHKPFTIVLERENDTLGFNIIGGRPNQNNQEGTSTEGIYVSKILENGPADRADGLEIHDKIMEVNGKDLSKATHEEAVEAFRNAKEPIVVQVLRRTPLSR

GRIP1_3, Q9Y3R0 = target: T8, GRIP1_3, Q9Y3R0
T8 sequence (Q9Y3R0 247-346, limits assumed, looked up): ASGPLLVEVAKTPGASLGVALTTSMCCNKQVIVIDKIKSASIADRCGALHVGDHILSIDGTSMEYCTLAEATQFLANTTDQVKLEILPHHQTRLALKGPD

LRRC7, Q96NW7 = target: T9, LRRC7, Q96NW7
T9 sequence (Q96NW7 1440-1537, limits assumed, looked up): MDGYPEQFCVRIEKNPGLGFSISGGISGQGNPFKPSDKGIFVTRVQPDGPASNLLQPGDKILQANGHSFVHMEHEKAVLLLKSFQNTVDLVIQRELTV

DLG5_1, Q8TDM6 = target: DLG5_1, Q8TDM6
Chain of DLG5_1, Q8TDM6 (Q8TDM6 617-713): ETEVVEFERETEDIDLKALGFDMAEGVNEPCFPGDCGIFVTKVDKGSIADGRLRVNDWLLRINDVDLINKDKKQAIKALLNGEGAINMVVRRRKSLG

HTRA3, P83110 = target: T10, HTRA3, P83110
T10 sequence (P83110 354-453, limits assumed, looked up): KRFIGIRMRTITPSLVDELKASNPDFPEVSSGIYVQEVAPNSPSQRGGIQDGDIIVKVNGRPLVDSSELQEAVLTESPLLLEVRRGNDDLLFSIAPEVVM

IL16_1, Q14005 = target: IL16_1, Q14005
Chain of IL16_1, Q14005 (Q14005 210-306): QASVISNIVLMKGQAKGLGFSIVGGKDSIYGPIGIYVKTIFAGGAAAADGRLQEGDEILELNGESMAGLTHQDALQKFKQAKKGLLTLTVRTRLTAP

MAGI2_3, Q86UL8 = target: MAGI2_3, Q86UL8
Chain of MAGI2_3, Q86UL8 (Q86UL8 600-682): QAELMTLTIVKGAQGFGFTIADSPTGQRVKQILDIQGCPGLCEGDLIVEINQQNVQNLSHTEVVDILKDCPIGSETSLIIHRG

SCRIB_1, Q14160 = target: SCRIB_1, Q14160
Chain of SCRIB_1, Q14160 (Q14160 718-814): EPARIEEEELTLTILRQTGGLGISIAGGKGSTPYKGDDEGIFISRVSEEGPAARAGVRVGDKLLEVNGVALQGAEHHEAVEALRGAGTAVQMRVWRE

Chain of GRASP, Q7Z6J2 (Q7Z6J2 96-193): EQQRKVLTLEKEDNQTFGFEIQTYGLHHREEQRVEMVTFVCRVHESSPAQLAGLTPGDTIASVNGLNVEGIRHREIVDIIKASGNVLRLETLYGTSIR

B1: APBA1, Q02410 (peptide)
chain: LTAQEQPVYI
pKd (GRASP, Q7Z6J2): below the threshold
pKd (LDB3, O75112): below the threshold
pKd (LNX1_1, Q8TBB1): below the threshold
pKd (Inadl_10, Q8NI35): below the threshold
pKd (MPDZ_12, O75970): below the threshold
pKd (TJP1_2, Q07157): 3.55
pKd (RHPN1, Q8TCX5): below the threshold
pKd (NHERF4_1, Q86UT5-2): below the threshold
pKd (GRIP2_5, Q9C0E4): below the threshold
pKd (NHERF4_4, Q86UT5): below the threshold
pKd (DVL3, Q92997): 3.87
pKd (LNX2_3, Q8N448): below the threshold
pKd (GIPC2, Q8TF65): below the threshold
pKd (ARHGEF11, O15085): 4.21
pKd (GRIP1_7, Q9Y3R0): below the threshold
pKd (LNX1_3, Q8TBB1): below the threshold
pKd (CARD11, Q9BXL7): below the threshold
pKd (MAGI1_2, Q96QZ7): below the threshold
pKd (TJP1_3, Q07157): below the threshold
pKd (NHERF4_2, Q86UT5): below the threshold
pKd (PDZRN4_1, Q6ZMN7): below the threshold
pKd (GRIP1_3, Q9Y3R0): below the threshold
pKd (LRRC7, Q96NW7): below the threshold
pKd (DLG5_1, Q8TDM6): below the threshold
pKd (HTRA3, P83110): 4.41
pKd (IL16_1, Q14005): below the threshold
pKd (MAGI2_3, Q86UL8): below the threshold
pKd (SCRIB_1, Q14160): below the threshold

B2: FAT1, Q14517 (peptide)
chain: PLDSQQHTEV
pKd (GRASP, Q7Z6J2): 4.34
pKd (LDB3, O75112): below the threshold
pKd (LNX1_1, Q8TBB1): below the threshold
pKd (Inadl_10, Q8NI35): below the threshold
pKd (MPDZ_12, O75970): below the threshold
pKd (TJP1_2, Q07157): 3.62
pKd (RHPN1, Q8TCX5): 4.07
pKd (NHERF4_1, Q86UT5-2): below the threshold
pKd (GRIP2_5, Q9C0E4): below the threshold
pKd (NHERF4_4, Q86UT5): below the threshold
pKd (DVL3, Q92997): below the threshold
pKd (LNX2_3, Q8N448): below the threshold
pKd (GIPC2, Q8TF65): 3.89
pKd (ARHGEF11, O15085): 4.67
pKd (GRIP1_7, Q9Y3R0): below the threshold
pKd (LNX1_3, Q8TBB1): below the threshold
pKd (CARD11, Q9BXL7): below the threshold
pKd (MAGI1_2, Q96QZ7): below the threshold
pKd (TJP1_3, Q07157): below the threshold
pKd (NHERF4_2, Q86UT5): below the threshold
pKd (PDZRN4_1, Q6ZMN7): 3.81
pKd (GRIP1_3, Q9Y3R0): below the threshold
pKd (LRRC7, Q96NW7): below the threshold
pKd (DLG5_1, Q8TDM6): below the threshold
pKd (HTRA3, P83110): below the threshold
pKd (IL16_1, Q14005): below the threshold
pKd (MAGI2_3, Q86UL8): below the threshold
pKd (SCRIB_1, Q14160): 4.12

Other lines, results leading:

pKd (GRASP, Q7Z6J2): 5.22
pKd (LDB3, O75112): below the threshold
pKd (LNX1_1, Q8TBB1): below the threshold
pKd (Inadl_10, Q8NI35): below the threshold
pKd (MPDZ_12, O75970): below the threshold
pKd (TJP1_2, Q07157): below the threshold
pKd (RHPN1, Q8TCX5): below the threshold
pKd (NHERF4_1, Q86UT5-2): 4.41
pKd (GRIP2_5, Q9C0E4): below the threshold
pKd (NHERF4_4, Q86UT5): 3.89
pKd (DVL3, Q92997): below the threshold
pKd (LNX2_3, Q8N448): below the threshold
pKd (GIPC2, Q8TF65): below the threshold
pKd (ARHGEF11, O15085): 3.85
pKd (GRIP1_7, Q9Y3R0): below the threshold
pKd (LNX1_3, Q8TBB1): below the threshold
pKd (CARD11, Q9BXL7): below the threshold
pKd (MAGI1_2, Q96QZ7): 4.25
pKd (TJP1_3, Q07157): below the threshold
pKd (NHERF4_2, Q86UT5): below the threshold
pKd (PDZRN4_1, Q6ZMN7): below the threshold
pKd (GRIP1_3, Q9Y3R0): below the threshold
pKd (LRRC7, Q96NW7): below the threshold
pKd (DLG5_1, Q8TDM6): below the threshold
pKd (HTRA3, P83110): below the threshold
pKd (IL16_1, Q14005): below the threshold
pKd (MAGI2_3, Q86UL8): below the threshold
pKd (SCRIB_1, Q14160): 3.86
B3: PLEKHH2, Q8IVE3 (peptide)
chain: SRPTKGPTLL

pKd (GRASP, Q7Z6J2): 3.48
pKd (LDB3, O75112): below the threshold
pKd (LNX1_1, Q8TBB1): 3.9
pKd (Inadl_10, Q8NI35): below the threshold
pKd (MPDZ_12, O75970): below the threshold
pKd (TJP1_2, Q07157): below the threshold
pKd (RHPN1, Q8TCX5): 3.84
pKd (NHERF4_1, Q86UT5-2): 3.6
pKd (GRIP2_5, Q9C0E4): below the threshold
pKd (NHERF4_4, Q86UT5): below the threshold
pKd (DVL3, Q92997): 3.48
pKd (LNX2_3, Q8N448): below the threshold
pKd (GIPC2, Q8TF65): below the threshold
pKd (ARHGEF11, O15085): 4.21
pKd (GRIP1_7, Q9Y3R0): below the threshold
pKd (LNX1_3, Q8TBB1): 3.47
pKd (CARD11, Q9BXL7): below the threshold
pKd (MAGI1_2, Q96QZ7): below the threshold
pKd (TJP1_3, Q07157): below the threshold
pKd (NHERF4_2, Q86UT5): below the threshold
pKd (PDZRN4_1, Q6ZMN7): below the threshold
pKd (GRIP1_3, Q9Y3R0): below the threshold
pKd (LRRC7, Q96NW7): below the threshold
pKd (DLG5_1, Q8TDM6): below the threshold
pKd (HTRA3, P83110): 4.68
pKd (IL16_1, Q14005): below the threshold
pKd (MAGI2_3, Q86UL8): below the threshold
pKd (SCRIB_1, Q14160): below the threshold
B4: GJD2, Q9UKL4 (peptide)
chain: RTQSSDSAYV
